Assay results taken from article PMC8777168 (2022).

B1: STUB1, expressed from a plasmid in 293T cells [not stated] / MIF in 293T cells [not stated] (parent complex)
chain 1: MKGKEEKEGGARLGAGGGSPEKSPSAQELKEQGNRLFVGRKYPEAAACYGRAITRNPLVAVYYTNRALCYLKMQQHEQALADCRRALELDGQSVKAHFFLGQCQLEMESYDEAIANLQRAYSLAKEQRLNFGDDIPSALRIAKKKRWNSIEERRIHQESELHSYLSRLIAAERERELEECQRNHEGDEDDSHVRAQQACIEAKHDKYMADMDELFSQVDEKRKKRDIPDYLCGKISFELMREPCITPSGITYDRKDIEEHLQRVGHFDPVTRSPLTQEQLIPNLAMKEVIDAFISENGWVEDY
chain 2: PMFIVNTNVPRASVPDGFLSELTQQLAQATGKPPQYIAVHVVPDQLMAFGGSSEPCALCSLHSIGKIGGAQNRSYSKLLCGLLAERLRISPDRVYINYYDMNAANVGWNNSTFA

Variants of: B1
Assay: co-immunoprecipitation (IP: Myc, IB: MIF) and western blot, band quantification; 293T cells transfected for 24 h with STUB1 mutation plasmids; triplicate experiments, mean ± SD; read off a plot

Variant | response [MIF/Input ratio]
chain 1 W147A | ~1
chain 1 S149A | ~1
chain 1 R66A | ~0.25
chain 1 K143A | ~0.22
